Data from the nanobody polyreactivity screen of Harvey et al. (2022).

Test: yeast display, Sf9 membrane polyspecificity reagent, FACS + sequencing; frameworks hold sequencing errors
Procedure, shortened: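 Polyreactivity labels are assigned by the sorting gate from which each nanobody was recovered. The gates were low and high (top ~1%), set on anti-HA fluorescence for expression and streptavidin fluorescence for reagent binding. Before sorting, galactose-induced (36–48 hours) yeast display cells were stained for 1 hour at 4 °C with 10% biotinylated, detergent-solubilized Sf9 membrane reagent.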

Sequence | polyreactivity (PSR sort gate)
QVQLVESGGGLVQAGGSLRLSCAASGNTFTGYAMGWYREAPGKERELVAAITRSGRTYYADSVKGRFTISRDNAKNTVYLQMTSLKPEDTAVYYCAADRRYVKYYYSGQGTQVTVSS | high polyreactivity
QVQLVESGGGLVQAGGSLRLSCAASGFIFEDYAMGWYRQAPGKERELVAAITWRGGRTYYADSVKGRFTISRDNAKNTVYLQMNSLKPEDTAVYYCRPQVYSYASRYGYWGQGTQVTVLS | low polyreactivity
QVQLVESGGGLVQAGGSLRLSCAASGFIFGTYAMGWYRQAPGKERELVAAISVGGGSTYYADSVKGRFTISRDNAKNTVYLQMNSLKPEDTAVYYCAAVQLYQKHQITYVAHEYWGQGTQVTVSS | low polyreactivity
QVQLVESGGGLVQAGCSLRLSCAASGIIFALNAMGWYRQAPGKERELVAAISDGDSTHYADSVKGRFTISRDNAKNTVYLQMNSLKPEDTAVYYCAVDNRDLFFYPGGFDYWGQGTQVTVSS | low polyreactivity
QVQLVESGGGLVQAGGSLRLSSAASGSIFVLYAMGWYRQAPGKERELVAAIDVGGGSTYYADSVKGRFTISRDNAKNTVYLQMNSLKPEDTAVYYCAAELYYTYRWYDYWGQGTQVTVSS | high polyreactivity
QVQLVESGGGLVQAGGSLRLSCAASGYTFSSNAMGWYRQATGKVSELVATNSSGGSTYYADSVKGRFTISRDNAKNTVYLQMYSLKPEDTAVYYCAADDLGWWFYSGGEDYYYWGQGTQVTVSS | low polyreactivity
QVQLVESGGGLVQAGGSLRLSCAASGRIFGKNDMGWYRQAPGKETEFVATIDWSGGSTYYADSVKGRFTISRDNAKNTVYLQMNSLKPEDTAVYYCAASGWNRYLFDYWGQGTQVTVSS | low polyreactivity
QVQLVESGGGLVQAGGSLRLSCAASGSTFLFNGMGWYRQAPGKERELVAAISRSGGRTYYADSVKGRFTISRDNAKNTVYLQMNSLKPEDTAVYYCAAKYRLSGGYGVDYWGQGTQVTVSS | high polyreactivity
QVHLVESGGGLVQAGGSLRLSCAASGSTFDTYALGWYRQAPGKEWELVAAINTGGRTKYADSVKGRFTISRDNAKNTVYLQMNSLKPVDTGVYYCAARLSTTGVAYGYWGLGTQVTVSS | high polyreactivity
QVQLVESGGGLVQAGGSLRLSCAASGIIFYEYVMGWYRQAPGKEREVVATISSIGGATYYADSVKGRFTISRDNAKNTVYLQMNSLKPEDTAVDYCAADPEPVVARGGNWYGDDDWGQGTQVTVSS | high polyreactivity
QVQLVESGGGLVQAGGSLRLSCAASGSTFTINVMGWYRQAPGKERELVAAIHGGGRPNYADSVKGRFTISRDNAKKTVYLQMNSLKPEDTAVYYCAADGLSNVRQMDYWGQGTQVTVSS | low polyreactivity
QVQLVESGGGLVQAGGSLRLTCAASGSTLYWKAMGWYRQAPGKERELVASITSSGGSTYYADSVKGRFTISRDNAKNTVYLQMNSLKPEDTAVYDCATESWWRYSEYYYWGQGSQVTVSS | low polyreactivity
QVQLVESGGGLVQAGGSLRLSCAATGSTFDDNVMGWYRQAHGKVRELVAAITTSGGSTFYADSVKWRFTISRDNAKNTVYLQMNSLKPEDTAVYYCNAVYFGLWGYYARRSYNYWGQGTQVTVSS | low polyreactivity
QVQLVESGGGLVQAGGSLRLSCAASGGIFYSNAMGWYRQAPGKERELVAVISGNGGRTYYADSVKGRFTISRDNAKNTVYLQMNSLKPEDTAVYYCATPSYTTAYVEGDYWGQGTQVTVSS | low polyreactivity
QVQLVESGGGLVQAGGSLRLSCAASGITFHVYAMGWYRQAPGKEREFVASISWSGGSTYYADSVKGRFTISRDNAKNTVYLQMNSLKPEDTAVYYALLTVLSAVPYSVRYDYWGQGTQVTVSS | high polyreactivity
QVQLVESGGGLVQAGGSLRLSCAASGRIFDYYTMGWYRQAPGKERELVAAISVRGGSTYYADSVKGRFTNSRDNAKNTVYLQMNSLKPEDTAVYYCAARSWRHRTYYYWGQGTQVTVSS | high polyreactivity
QVQLVESGGGLVQAGASLRLSCAASGRTFYNYAMGWYRQARGKEREFVASMTTSGGSTYYADSVKGRFTISRDNAKNTVYLQMNSLKPEDTAVYYCARRAYRSWTGNSYEYYYWGQGTQVTVSS | high polyreactivity
